According to patent US20170044238A1 (NATIONAL RESEARCH COUNCIL OF CANADA, published 2017):

T1: ovalbumin (UniProt P01012 2-386)
T1 sequence (looked up): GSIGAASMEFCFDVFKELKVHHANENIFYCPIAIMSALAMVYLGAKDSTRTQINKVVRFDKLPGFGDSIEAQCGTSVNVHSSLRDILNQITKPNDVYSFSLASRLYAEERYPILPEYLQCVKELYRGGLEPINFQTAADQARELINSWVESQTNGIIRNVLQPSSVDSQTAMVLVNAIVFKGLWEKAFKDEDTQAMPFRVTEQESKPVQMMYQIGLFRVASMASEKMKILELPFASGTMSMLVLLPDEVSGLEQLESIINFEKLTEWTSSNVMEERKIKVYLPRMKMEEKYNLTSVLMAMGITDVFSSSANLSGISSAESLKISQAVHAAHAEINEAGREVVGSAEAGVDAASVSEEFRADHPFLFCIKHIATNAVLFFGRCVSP

T2: human lysozyme (human, UniProt P61626 19-148)
T2 construct: Bought; passed through Superdex 75 before SPR
T2 sequence (looked up): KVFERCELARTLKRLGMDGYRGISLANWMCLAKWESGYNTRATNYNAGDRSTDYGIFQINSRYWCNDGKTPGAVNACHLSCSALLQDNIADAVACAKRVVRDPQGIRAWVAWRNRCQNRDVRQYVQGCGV

B1: HVLHSA1 (antibody, V domains shown)
VL: DIQMTQSPSSLSASVGDRVTITCRASQSISTYLNWYQQKPGKAPKLLCFGASRLNSGVPSRFSCSGSGTDFTLTISNLQPEDFATYYCRQLFPLPDRRTFGHGTKVTVL
notes: Anti-human serum albumin VL single-domain antibody from the HVLP324S library (Cys48/Cys64); also called anti-human serum albumin VL; not shown: C-terminal His6 tag
B2: HVLHLFL (antibody, V domains shown)
VL: DIQMTQSPSSLSASVGDRVTITCLASQSIFLYLDWYQQKPGKAPKLLCFFASTLESGVPSRFSCSGSGTDFTLTISNLQPEDFATYYCQQSYSTPRTFGHGTKVTVL
notes: Anti-human lysozyme VL from the HVLP324S library; KD not determined

Tests used:
[1] = target: T3, human serum albumin (human, UniProt P02768 25-609); experiment: SPR (Biacore 3000), VL over immobilized human serum albumin
T3 construct: also called HSA
T3 sequence (P02768 25-609 limits assumed): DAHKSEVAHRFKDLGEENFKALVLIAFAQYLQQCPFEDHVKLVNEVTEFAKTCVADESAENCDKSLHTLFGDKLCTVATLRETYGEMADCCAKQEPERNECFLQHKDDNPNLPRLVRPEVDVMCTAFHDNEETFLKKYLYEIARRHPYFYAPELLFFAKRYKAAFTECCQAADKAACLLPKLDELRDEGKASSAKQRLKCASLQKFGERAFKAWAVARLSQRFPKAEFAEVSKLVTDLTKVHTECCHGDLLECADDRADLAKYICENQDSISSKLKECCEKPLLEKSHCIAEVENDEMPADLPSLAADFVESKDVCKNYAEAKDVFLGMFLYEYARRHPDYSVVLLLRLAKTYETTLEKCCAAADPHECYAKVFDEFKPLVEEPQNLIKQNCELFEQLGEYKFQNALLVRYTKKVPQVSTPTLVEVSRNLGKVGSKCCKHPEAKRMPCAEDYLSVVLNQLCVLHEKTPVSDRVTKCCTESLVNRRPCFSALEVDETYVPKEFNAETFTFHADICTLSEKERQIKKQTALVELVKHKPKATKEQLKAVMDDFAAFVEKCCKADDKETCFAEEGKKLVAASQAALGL
Protocol: (§1) The KD of the VL against human serum albumin was determined by surface plasmon resonance as described for other domains above. Briefly, the binding of the VL to immobilized human serum albumin was determined by SPR using the BIACORE 3000 (GE Healthcare). Approximately 1,600 RUs of human serum albumin, 1,900 RUs of bovine serum albumin and 2,200 RUs of ovalbumin were immobilized on a research grade CMS sensor chip. An ethanolamine blocked surface was prepared, as a reference, in exactly the same manner as the protein surfaces. Immobilizations were carried out at concentrations of 20 μg/mL in 10 mM acetate buffer pH 4.5 using the amine coupling kit supplied by the manufacturer. The VL was passed through a Superdex 75 column (GE Healthcare) to eliminate any possible aggregates prior to Biacore analysis. For the binding studies, analyses were carried out at 25° C. in 10 mM HEPES, pH 7.4 containing 150 mM NaCl, 3 mM EDTA and 0.005% surfactant P20. The flow rates used were 40 μL/min and sample volumes were 60 μL. For regeneration the surface was washed for 10 min with the running buffer. Data were analyzed with BIAevaluation 4.1 software.

[2] = target: bovine serum albumin (bovine, UniProt P02769 25-607); experiment: SPR (Biacore 3000), VL over immobilized bovine serum albumin (about 1,900 RUs)
Sequence of bovine serum albumin (P02769 25-607 limits assumed): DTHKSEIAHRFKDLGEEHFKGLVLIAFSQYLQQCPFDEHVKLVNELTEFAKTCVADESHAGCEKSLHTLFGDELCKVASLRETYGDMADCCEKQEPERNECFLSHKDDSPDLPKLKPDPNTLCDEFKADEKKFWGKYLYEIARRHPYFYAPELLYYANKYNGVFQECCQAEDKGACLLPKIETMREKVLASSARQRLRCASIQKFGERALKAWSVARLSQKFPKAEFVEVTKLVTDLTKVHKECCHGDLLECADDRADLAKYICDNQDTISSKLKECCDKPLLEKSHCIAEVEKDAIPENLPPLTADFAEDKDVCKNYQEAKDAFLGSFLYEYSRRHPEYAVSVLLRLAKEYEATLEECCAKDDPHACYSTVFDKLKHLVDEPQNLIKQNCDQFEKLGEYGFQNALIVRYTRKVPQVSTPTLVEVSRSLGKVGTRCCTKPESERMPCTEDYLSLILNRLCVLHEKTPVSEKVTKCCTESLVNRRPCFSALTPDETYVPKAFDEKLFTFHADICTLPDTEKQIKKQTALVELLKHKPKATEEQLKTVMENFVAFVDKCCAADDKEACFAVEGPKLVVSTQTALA
Protocol: as §1

[3] = target: T1, ovalbumin; experiment: SPR (Biacore 3000), VL over immobilized ovalbumin (about 2,200 RUs)
Protocol: as §1

[4] = target: T2, human lysozyme; experiment: phage ELISA, phage-displayed VL on immobilized human lysozyme

Row | Binder | Kd [1] | binding result [2] | binding result [3] | binding result [4]
1 | B1 | 800 nM | no binding | no binding | 
2 | B2 |  |  |  | binds
